Our source for the ELISA_avg values is patent publication US20230125550A1 (ARCELLX, published 2023).

This test has as its target T1, recombinant human CD123-Fc (human, UniProt P26951 19-305).
T1 construct: not shown: Fc part of CD123-Fc
T1 sequence: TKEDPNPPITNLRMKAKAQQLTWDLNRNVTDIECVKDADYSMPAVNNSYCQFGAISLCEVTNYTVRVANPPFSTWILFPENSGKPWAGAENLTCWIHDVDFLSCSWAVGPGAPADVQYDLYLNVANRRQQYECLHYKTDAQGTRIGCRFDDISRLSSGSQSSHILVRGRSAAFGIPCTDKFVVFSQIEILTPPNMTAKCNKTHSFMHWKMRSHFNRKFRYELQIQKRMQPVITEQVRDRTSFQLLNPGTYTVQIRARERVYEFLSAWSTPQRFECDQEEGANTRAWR
In words: phage ELISA, A450 target/A450 IgG1-Fc. The method, boiled down: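 Phage were rescued in 96-well format with VCSM13 helper phage from individual phagemid colonies picked from panning output. Plates were coated with 1.3 microg/ml goat anti-human IgG1-Fc antibody, then 5 nM recombinant human target or IgG1-Fc, then 50 microl phage diluted 5× in ELISA blocking buffer. Binding was detected with HRP-conjugated anti-M13 antibody at 450 nm. The ELISA ratio is target over IgG1-Fc absorbance, averaged across all screened wells holding that clone.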
In general terms: In an ELISA, binding on a coated surface is turned into a signal by an enzyme label.

Substitutions are numbered along the chain they refer to.

B1: SEQ ID NO 661 (designed binder)
chain: MGSWYEFFDRLDAIYDRLYALGGSEAELASFEAQIAEFEVELQSYKGKGNPEVEALEWEAWAIDEELYAYRHN
For the molecule B1, the ELISA_avg amounted to 4.7 ratio.

B2: SEQ ID NO 651 (designed binder)
chain: MGSWVEFFWRLDAIEDRLWALGGSEAELANFEFEIADFEAWLQKYKGKGNPEVEALHSEADAIQLELRAYRHN
As for B2, the ELISA_avg turned out to be 4 ratio.

B3: SEQ ID NO 671 (designed binder)
chain: MGSWDEFSERLDAIWGRLEALGGSEAELATFEFHIAEFEHELQYYKGKGNPEVEALQGEAAAIINELYAYRHN
Take B3: the ELISA_avg turned out to be 3.2 ratio.

B4: SEQ ID NO 660 (designed binder)
chain: MGSWHEFDDRLDAIMSRLDALGGSEAELATFEAEIATFEFVLQLYKGKGNPEVEALLAEAYAIDWELEAYRHN
For the molecule B4, the ELISA_avg came out at 7.7 ratio.

B5: SEQ ID NO 669 (designed binder)
chain: MGSWNEFWERLDAIEWRLFALGGSEAELAFFELDIAWFEEELQWYKGKGNPEVEALIFEAHAITLELDAYRHN
Take B5: the ELISA_avg stood at 3 ratio.

B6: SEQ ID NO 653 (designed binder)
chain: MGSWEEFYYRLHAIDNRLWALGGSEAELAYFEWHIADFELELQDYKGKGNPEVEALSEEATAIFEELWAYRHN
With B6, the ELISA_avg came to 3 ratio.

B7: SEQ ID NO 670 (designed binder)
chain: MGSWYEFDARLDAIEERLYALGGSEAELAAFEFEIAGFEEALQWYKGKGNPEVEALLKEAEAITDELYAYRHN
With B7, the ELISA_avg was found to be 8.9 ratio.

B8: SEQ ID NO 663 (designed binder)
chain: MGSWLEFEDRLVAIDHRLFALGGSEAELAEFEEEIALFESYLQDYKGKGNPEVEALNWEADAIHAELYAYRHN
Regarding B8, the ELISA_avg is 3.9 ratio.

B9: SEQ ID NO 712 (designed binder)
chain: MGSWIEFEDRLYAIEDRLWALGGSEAELAAFEKEIAAFESELQAYKGKGNPEVEFLRYEAAEIRYWLQAYRHN
In the case of B9, the ELISA_avg worked out at 4 ratio.

B10: SEQ ID NO 681 (designed binder)
chain: B9 chain with I5E, E8H, Y12M, D16T, F55W, E62D, Y65D, W66Y
Take B10: the ELISA_avg was 4.3 ratio.

B11: SEQ ID NO 686 (designed binder)
chain: B9 chain with I5Y, E8Y, Y12D, D16W, F55W, Y58D, E62Q, Y65D, W66F
Regarding B11, the ELISA_avg stood at 6.2 ratio.

B12: SEQ ID NO 689 (designed binder)
chain: B9 chain with I5F, E8L, Y12D, D16E, F55W, Y58E, E62V, Y65D, W66S
As for B12, the ELISA_avg was determined as 12.2 ratio.

B13: SEQ ID NO 688 (designed binder)
chain: B9 chain with I5F, E8V, Y12T, E15Q, D16V, F55Y, Y58E, E62L, W66S
B13: the ELISA_avg was 5.1 ratio.

B14: SEQ ID NO 690 (designed binder)
chain: B9 chain with I5Y, E8M, D9V, Y12D, D16E, W19F, Y58E, E62S, W66H
Regarding B14, the ELISA_avg was found to be 4.1 ratio.

B15: SEQ ID NO 676 (designed binder)
chain: MGSWYEFDDRLEAIWDRLGALGGSEAELAAFEKEIAAFESELQAYKGKGNPEVEWLRETAADIRAELQAYRHN
As to B15, the ELISA_avg was 3.3 ratio.

B16: SEQ ID NO 678 (designed binder)
chain: B9 chain with D9V, Y12D, E15W, W19F, F55Y, Y58D, E62D, Y65Q, W66S
B16: the ELISA_avg was found to be 4.2 ratio.

B17: SEQ ID NO 683 (designed binder)
chain: B9 chain with I5M, E8I, Y12D, D16H, Y58E, Y65M, W66Y
With B17, the ELISA_avg was found to be 4.3 ratio.

B18: SEQ ID NO 685 (designed binder)
chain: B9 chain with I5V, E8Y, D16V, W19L, Y58Q, Y65D
As to B18, the ELISA_avg was found to be 5.8 ratio.

B19: SEQ ID NO 679 (designed binder)
chain: B15 chain with Y5T, D9R, E12D, G19F, T59E, A65D, E66Y
As for B19, the ELISA_avg is 9.2 ratio.

B20: SEQ ID NO 687 (designed binder)
chain: MGSWVEFYDRLDAIEHRLDALGGSEAELAAFEKEIAAFESELQAYKGKGNPEVEWLRDEAAFIRDMLQAYRHN
As for B20, the ELISA_avg was 3.4 ratio.

B21: SEQ ID NO 693 (designed binder)
chain: B20 chain with Y8E, D9Y, E15T, H16E, D19L, W55I, D58E, D65Q, M66W
As for B21, the ELISA_avg stood at 3.9 ratio.

B22: SEQ ID NO 680 (designed binder)
chain: B15 chain with Y5T, D9M, E12D, G19F, W55E, T59E, D62T, A65G, E66V
On to B22, for which the ELISA_avg came out at 3.1 ratio.

B23: SEQ ID NO 684 (designed binder)
chain: B9 chain with I5T, E8V, D9W, Y12D, D16W, W19E, Y58E, Y65D
For B23, the ELISA_avg amounted to 4.2 ratio.

B24: SEQ ID NO 682 (designed binder)
chain: B9 chain with I5V, E8R, Y12D, D16T, F55W, Y65M, W66V
On to B24, for which the ELISA_avg stood at 4.2 ratio.

B25: SEQ ID NO 665 (designed binder)
chain: MGSWYEFEDRLDAILYRLLALGGSEAELAWFERDIAFFESELQWYKGKGNPEVEALEWEAMAIDDELFAYRHN
In the case of B25, the ELISA_avg worked out at 4.3 ratio.

B26: SEQ ID NO 662 (designed binder)
chain: MGSWFEFLYRLDAIEDRLWALGGSEAELAEFEQEIAKFESELQSYKGKGNPEVEALEWEAHAIDMELEAYRHN
For B26, the ELISA_avg worked out at 6.6 ratio.

B27: SEQ ID NO 666 (designed binder)
chain: MGSWGEFMDRLEAIDYRLWALGGSEAELAWFESDIAEFEQELQMYKGKGNPEVEALWDEAMAIRDELFAYRHN
Regarding B27, the ELISA_avg came to 4.6 ratio.

B28: SEQ ID NO 650 (designed binder)
chain: MGSWWEFTDRLEAIEDRLWALGGSEAELAHFEDSIAQFEQELQWYKGKGNPEVEALADEADAIESELHAYRHN
B28: the ELISA_avg was 16.6 ratio.

B29: SEQ ID NO 659 (designed binder)
chain: MGSWDEFDTRLDAIFSRLYALGGSEAELAMFEGEIAEFEGSLQHYKGKGNPEVEALDFEAHAIDEELWAYRHN
As to B29, the ELISA_avg was determined as 4 ratio.

B30: SEQ ID NO 672 (designed binder)
chain: MGSWDEFWDRLDAIEDRLFALGGSEAELADFERVIAWFENDLQEYKGKGNPEVEALDNEADAIRIELHAYRHN
For B30, the ELISA_avg is 3.9 ratio.

B31: SEQ ID NO 654 (designed binder)
chain: MGSWREFHDRLFAIDGRLWALGGSEAELANFEWDIADFEFELQDYKGKGNPEVEALSWEADAIMQELGAYRHN
Take B31: the ELISA_avg stood at 5.6 ratio.

B32: SEQ ID NO 667 (designed binder)
chain: MGSWEEFDDRLDAIEHRLWALGGSEAELADFEGSIAAFESWLQVYKGKGNPEVEALEAEAEAIADELWAYRHN
B32: the ELISA_avg stood at 4 ratio.

B33: SEQ ID NO 656 (designed binder)
chain: MGSWEEFEQRLWAIDDRLWALGGSEAELAFFEYEIAEFEMDLQWYKGKGNPEVEALFYEAHAINEELWAYRHN
On to B33, for which the ELISA_avg is 5.7 ratio.

B34: SEQ ID NO 664 (designed binder)
chain: MGSWYEFESRLDAIVDRLWALGGSEAELAEFEYEIAKFEWELQDYKGKGNPEVEALNWEAGAIEFELYAYRHN
For the molecule B34, the ELISA_avg is 5.1 ratio.

B35: SEQ ID NO 673 (designed binder)
chain: MGSWDEFDDRLEAIVDRLFALGGSEAELAMFEFEIAQFEHQLQYYKGKGNPEVEALRDEADAIWIELDAYRHN
As for B35, the ELISA_avg was determined as 5.6 ratio.

B36: SEQ ID NO 655 (designed binder)
chain: MGSWEEFDERLWAISDRLWALGGSEAELAYFEGEIAYFEQNLQTYKGKGNPEVEALQTEALAIDTELWAYRHN
As to B36, the ELISA_avg stood at 6.5 ratio.

B37: SEQ ID NO 658 (designed binder)
chain: MGSWVEFEYRLDAISDRLWALGGSEAELAFFENEIASFESDLQFYKGKGNPEVEALMFEAEAIDDELHAYRHN
For B37, the ELISA_avg is 6.5 ratio.

B38: SEQ ID NO 674 (designed binder)
chain: MGSWEEFTIRLGAIYWRLFALGGSEAELANFEWFIAEFEYELQPYKGKGNPEVEALVIEANAIDGELQAYRHN
As to B38, the ELISA_avg amounted to 3.3 ratio.

B39: SEQ ID NO 668 (designed binder)
chain: MGSWYEFADRLDAIMDRLVALGGSEAELAYFEWEIAAFEEFLQMYKGKGNPEVEALDEEAEAIKDELMAYRHN
Consider B39, for which the ELISA_avg was found to be 3.3 ratio.

B40: SEQ ID NO 675 (designed binder)
chain: MGSWFEFEWRLDAIENRLNALGGSEAELAWFEYHIAAFEDSLQHYKGKGNPEVEALEWEAHAIQSELQAYRHN
Regarding B40, the ELISA_avg was 3.3 ratio.

B41: SEQ ID NO 657 (designed binder)
chain: MGSWDEFHQRLAAIGDRLWALGGSEAELAYFEWEIATFEWDLQVYKGKGNPEVEALYFEATAIDEELMAYRHN
Turning to B41, the ELISA_avg amounted to 3.7 ratio.

B42: SEQ ID NO 652 (designed binder)
chain: MGSWVEFYNRLDAIENRLWALGGSEAELAFFEELIAQFEFALQDYKGKGNPEVEALEDEADAIWEELMAYRHN
On to B42, for which the ELISA_avg turned out to be 6.9 ratio.
